# According to publication PMC4655355, “Structural insights into YfiR sequestering by YfiB in Pseudomonas aeruginosa PAO1” (Scientific Reports, 2015):
# Residue numbers refer to the chain shown, from its start. Names may count otherwise.
# B1: YfiB(27–168) (domain or fragment)
# chain: QTKPPQTGLSAEQIAVLQEQGFELRDEGWEFGMSSKVLFGNNLDRLNPDSRNTLTKIARALLAVDIDKVRLEGHTDNYGDEGYNQKLSERRAESVAAVFREAGMPAANIEVRGLGMSKPVADNKTRAGRSENRRVAIIVPAE
# notes: signal peptide 1-25 and lipid acceptor Cys26 left out; cloned in pGEX-6p-1; GST removed with PPase on the resin; also called PA1119; longer YfiB construct; source: E. coli, purified (GST column, Hitrap Q, Superdex75)
# B2: YfiB(59–168) (domain or fragment)
# chain: MSSKVLFGNNLDRLNPDSRNTLTKIARALLAVDIDKVRLEGHTDNYGDEGYNQKLSERRAESVAAVFREAGMPAANIEVRGLGMSKPVADNKTRAGRSENRRVAIIVPAE
# notes: cloned in pET-32a; tag removed with PPase on the resin; also called shorter YfiB construct; source: E. coli, purified (Ni-NTA, Hitrap S, Superdex75)
# B3: YfiR(C71S) (domain or fragment)
# chain: DDARTSIEQRSNAVSQVLLGIFSYVRWPKEPAVLQLSVVGPTEYADGLLRGMVQANGRRVHAERRAVDNPDLGTLCNVIYLGVVDERERQQVFRSLAGHPVLSISERGTECSVGSMFCLNVGGPRITFEANLDSIARSGVRVHPSVLKLARRQATP
# notes: YfiR (PA1121) of Pseudomonas aeruginosa PAO1, residues 35-190, with C71S; the methods describe only the wild-type construct; also called C71S mutant of YfiR; not shown: Trx, N-terminal, cleaved
# B4: YfiR (residues 35–190) (domain or fragment)
# chain: B3 chain with S37C
# notes: YfiR (PA1121) of Pseudomonas aeruginosa PAO1, residues 35-190; the N-terminal 34 residues (signal peptide) left out; cloned in pET-32a; purified on Ni-NTA, tag removed with PPase; also called PA1121; wild-type YfiR; source: E. coli, purified (Ni-NTA, ResourceS, Superdex75); not shown: Trx, N-terminal, cleaved
# Columns and labels:
# [1] = molecular target: YfiB W55L (Pseudomonas aeruginosa PAO1) (UniProt Q9I4L6); test: AUC; single purified proteins, 400 μL at 3 mg ml^-1 in 20 mM Tris-HCl, 200 mM NaCl; 42,000 rpm, 277 K, interference detection; SEDFIT
# [2] = molecular target: the molecule itself; test: as above
# YfiR(C71S) = molecular target: B3; test: crystal structure; YfiR(C71S)-YfiB(59–168) complex, 1.97 Å; proteins mixed 1:1; 0.1 M HEPES pH 7.5, 1.8 M ammonium sulfate, 293 K; settings: both partners purified
# YfiR (residues 35–190) = molecular target: B4; test: AUC; YfiB-YfiR complex at 10 mg ml^-1 in 20 mM Tris-HCl, 200 mM NaCl; 42,000 rpm, 277 K, interference detection; SEDFIT; settings: both partners purified
# [3] = molecular target: the molecule itself; test: crystal structure; YfiR(C71S)-YfiB(59–168) complex, 1.97 Å; proteins mixed 1:1; 0.1 M HEPES pH 7.5, 1.8 M ammonium sulfate, 293 K
# [4] = molecular target: the molecule itself; test: AUC; YfiB-YfiR complex at 10 mg ml^-1 in 20 mM Tris-HCl, 200 mM NaCl; 42,000 rpm, 277 K, interference detection; SEDFIT
molecule,measurement,setting,value
YfiB W55L (from UniProt Q9I4L6 27-168) (domain or fragment),stoichiometry N,[1],2
B1,stoichiometry N,[2],2
B2,binding result,YfiR(C71S),binds
same,stoichiometry N,YfiR (residues 35–190),1 YfiB per YfiR (2:2)
B3,binding result,[3],binds
B4,stoichiometry N,[4],2
